Experimental findings from patent US20190153061A1 are described below.

This assay has as its target B-cell maturation antigen (BCMA) expressed on cells (human), Q02223. Nature of the assay: cell-based or functional assay.

B-cell maturation antigen (BCMA) expressed on cells (human), Q02223, sequence (Q02223 whole entry): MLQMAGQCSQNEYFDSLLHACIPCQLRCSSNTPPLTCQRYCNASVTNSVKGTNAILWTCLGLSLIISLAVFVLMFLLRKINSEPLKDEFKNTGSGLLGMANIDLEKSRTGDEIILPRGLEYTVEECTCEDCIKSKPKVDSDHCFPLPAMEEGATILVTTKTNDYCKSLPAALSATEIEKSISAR

B1: BCMA-4NP tool CAR (126021) (protein, not shown: a dimerising Fc or GST)
chain: QVQLVQSGAEVKKPGSSVKVSCKASGGTFSNYWMHWVRQAPGQGLEWMGATYRGHSDTYYNQKFKGRVTITADKSTSTAYMELSSLRSEDTAVYYCARGAIYNGYDVLDNWGQGTLVTVSSGGGGSGGGGSGGGGSGGGGSDIQMTQSPSSLSASVGDRVTITCSASQDISNYLNWYQQKPGKAPKLLIYYTSNLHSGVPSRFSGSGSGTDFTLTISSLQPEDFATYYCQQYRKLPWTFGQGTKLEIKR
Consider B1, for which the Cell killing EC50; KMS11-luc worked out at 0.12 not printed; the JNL binding assay, ratio to K562; K562-BCMA came out at 3.15; the JNL binding assay, ratio to K562; NCI-H929 came to 2.27; the JNL binding assay, ratio to K562; RPMI 8226 amounted to 3.54. In addition, the Proliferation, CD3 ratio to no target; K562-BCMA came out at 5.52; the Proliferation, CD3 ratio to no target; KMS11-luc was found to be 5.41; the Proliferation, CD3 ratio to no target; NCI-H929 stood at 6.52; the Proliferation, CD3 ratio to no target; RPMI 8226 came out at 5.83. Further, the Proliferation, CD4 ratio to no target; K562-BCMA stood at 8.5; the Proliferation, CD4 ratio to no target; KMS11-luc amounted to 5.54; the Proliferation, CD4 ratio to no target; NCI-H929 stood at 8.98; the Proliferation, CD4 ratio to no target; RPMI 8226 was determined as 8.5. For the same molecule, the Proliferation, CD8 ratio to no target; K562-BCMA was found to be 3.06; the Proliferation, CD8 ratio to no target; KMS11-luc stood at 5.2; the Proliferation, CD8 ratio to no target; NCI-H929 was found to be 4.31; the Proliferation, CD8 ratio to no target; RPMI 8226 is 3.49.

B2: BCMA-5 CAR (139104) (protein)
chain: EVQLLETGGGLVQPGGSLRLSCAVSGFALSNHGMSWVRRAPGKGLEWVSGIVYSGSTYYAASVKGRFTISRDNSRNTLYLQMNSLRPEDTAIYYCSAHGGESDVWGQGTTVTVSSASGGGGSGGRASGGGGSEIVLTQSPATLSVSPGESATLSCRASQSVSSNLAWYQQKPGQAPRLLIYGASTRASGIPDRFSGSGSGTDFTLTISSLQAEDVAVYYCQQYGSSLTFGGGTKVEIKTTTPAPRPPTPAPTIASQPLSLRPEACRPAAGGAVHTRGLDFACDIYIWAPLAGTCGVLLLSLVITLYCKRGRKKLLYIFKQPFMRPVQTTQEEDGCSCRFPEEEEGGCELRVKFSRSADAPAYKQGQNQLYNELNLGRREEYDVLDKRRGRDPEMGGKPRRKNPQEGLYNELQKDKMAEAYSEIGMKGERRRGKGHDGLYQGLSTATKDTYDALHMQALPPR
Regarding B2, the Cell killing EC50; KMS11-luc was 0.21 not printed; the JNL binding assay, ratio to K562; K562-BCMA amounted to 2.34; the JNL binding assay, ratio to K562; NCI-H929 came out at 2.34; the JNL binding assay, ratio to K562; RPMI 8226 is 2.4. In addition, the Proliferation, CD3 ratio to no target; K562-BCMA is 1.62; the Proliferation, CD3 ratio to no target; KMS11-luc was found to be 1.61; the Proliferation, CD3 ratio to no target; NCI-H929 worked out at 1.72; the Proliferation, CD3 ratio to no target; RPMI 8226 was 1.73. Moreover, the Proliferation, CD4 ratio to no target; K562-BCMA stood at 2.19; the Proliferation, CD4 ratio to no target; KMS11-luc amounted to 1.9; the Proliferation, CD4 ratio to no target; NCI-H929 was found to be 2.23; the Proliferation, CD4 ratio to no target; RPMI 8226 stood at 2.15. Also, the Proliferation, CD8 ratio to no target; K562-BCMA was 0.99; the Proliferation, CD8 ratio to no target; KMS11-luc came to 1.27; the Proliferation, CD8 ratio to no target; NCI-H929 was found to be 1.11; the Proliferation, CD8 ratio to no target; RPMI 8226 is 1.25.

B3: BCMA-1 CAR (139100) (protein)
chain: QVQLVQSGAEVRKTGASVKVSCKASGYIFDNFGINWVRQAPGQGLEWMGWINPKNNNTNYAQKFQGRVTITADESTNTAYMEVSSLRSEDTAVYYCARGPYYYQSYMDVWGQGTMVTVSSASGGGGSGGRASGGGGSDIVMTQTPLSLPVTPGEPASISCRSSQSLLHSNGYNYLNWYLQKPGQSPQLLIYLGSKRASGVPDRFSGSGSGTDFTLHITRVGAEDVGVYYCMQALQTPYTFGQGTKLEIKTTTPAPRPPTPAPTIASQPLSLRPEACRPAAGGAVHTRGLDFACDIYIWAPLAGTCGVLLLSLVITLYCKRGRKKLLYIFKQPFMRPVQTTQEEDGCSCRFPEEEEGGCELRVKFSRSADAPAYKQGQNQLYNELNLGRREEYDVLDKRRGRDPEMGGKPRRKNPQEGLYNELQKDKMAEAYSEIGMKGERRRGKGHDGLYQGLSTATKDTYDALHMQALPPR
As to B3, the Cell killing EC50; KMS11-luc was determined as 0.68 not printed; the JNL binding assay, ratio to K562; K562-BCMA was determined as 4.6; the JNL binding assay, ratio to K562; NCI-H929 amounted to 4.55; the JNL binding assay, ratio to K562; RPMI 8226 was 5.06. Besides, the Proliferation, CD3 ratio to no target; K562-BCMA was found to be 1.59; the Proliferation, CD3 ratio to no target; KMS11-luc was 1.38; the Proliferation, CD3 ratio to no target; NCI-H929 worked out at 4.97; the Proliferation, CD3 ratio to no target; RPMI 8226 is 2.96. The Proliferation, CD4 ratio to no target; K562-BCMA worked out at 1.57; the Proliferation, CD4 ratio to no target; KMS11-luc came out at 1.24; the Proliferation, CD4 ratio to no target; NCI-H929 is 5.57; the Proliferation, CD4 ratio to no target; RPMI 8226 is 2.43. The Proliferation, CD8 ratio to no target; K562-BCMA stood at 1.61; the Proliferation, CD8 ratio to no target; KMS11-luc is 1.56; the Proliferation, CD8 ratio to no target; NCI-H929 was 4.14; the Proliferation, CD8 ratio to no target; RPMI 8226 came out at 3.58.

B4: BCMA-7 CAR (139106) (protein)
chain: EVQLVETGGGLVQPGGSLRLSCAVSGFALSNHGMSWVRRAPGKGLEWVSGIVYSGSTYYAASVKGRFTISRDNSRNTLYLQMNSLRPEDTAIYYCSAHGGESDVWGQGTTVTVSSASGGGGSGGRASGGGGSEIVMTQSPATLSVSPGERATLSCRASQSVSSKLAWYQQKPGQAPRLLMYGASIRATGIPDRFSGSGSGTEFTLTISSLEPEDFAVYYCQQYGSSSWTFGQGTKVEIKTTTPAPRPPTPAPTIASQPLSLRPEACRPAAGGAVHTRGLDFACDIYIWAPLAGTCGVLLLSLVITLYCKRGRKKLLYIFKQPFMRPVQTTQEEDGCSCRFPEEEEGGCELRVKFSRSADAPAYKQGQNQLYNELNLGRREEYDVLDKRRGRDPEMGGKPRRKNPQEGLYNELQKDKMAEAYSEIGMKGERRRGKGHDGLYQGLSTATKDTYDALHMQALPPR
B4: the Cell killing EC50; KMS11-luc is 0.15 not printed; the JNL binding assay, ratio to K562; K562-BCMA amounted to 2.55; the JNL binding assay, ratio to K562; NCI-H929 turned out to be 2.36; the JNL binding assay, ratio to K562; RPMI 8226 was 2.77. Moreover, the Proliferation, CD3 ratio to no target; K562-BCMA came out at 1.72; the Proliferation, CD3 ratio to no target; KMS11-luc came to 1.71; the Proliferation, CD3 ratio to no target; NCI-H929 came to 1.8; the Proliferation, CD3 ratio to no target; RPMI 8226 turned out to be 1.62. In addition, the Proliferation, CD4 ratio to no target; K562-BCMA was determined as 2.17; the Proliferation, CD4 ratio to no target; KMS11-luc was determined as 1.96; the Proliferation, CD4 ratio to no target; NCI-H929 was 2.23; the Proliferation, CD4 ratio to no target; RPMI 8226 was found to be 1.91. Moreover, the Proliferation, CD8 ratio to no target; K562-BCMA came to 1.08; the Proliferation, CD8 ratio to no target; KMS11-luc was 1.35; the Proliferation, CD8 ratio to no target; NCI-H929 came to 1.18; the Proliferation, CD8 ratio to no target; RPMI 8226 amounted to 1.19.

B5: BCMA-4 CAR (139103) (protein)
chain: QVQLVESGGGLVQPGRSLRLSCAASGFTFSNYAMSWVRQAPGKGLGWVSGISRSGENTYYADSVKGRFTISRDNSKNTLYLQMNSLRDEDTAVYYCARSPAHYYGGMDVWGQGTTVTVSSASGGGGSGGRASGGGGSDIVLTQSPGTLSLSPGERATLSCRASQSISSSFLAWYQQKPGQAPRLLIYGASRRATGIPDRFSGSGSGTDFTLTISRLEPEDSAVYYCQQYHSSPSWTFGQGTKLEIKTTTPAPRPPTPAPTIASQPLSLRPEACRPAAGGAVHTRGLDFACDIYIWAPLAGTCGVLLLSLVITLYCKRGRKKLLYIFKQPFMRPVQTTQEEDGCSCRFPEEEEGGCELRVKFSRSADAPAYKQGQNQLYNELNLGRREEYDVLDKRRGRDPEMGGKPRRKNPQEGLYNELQKDKMAEAYSEIGMKGERRRGKGHDGLYQGLSTATKDTYDALHMQALPPR
With B5, the Cell killing EC50; KMS11-luc worked out at 0.13 not printed; the JNL binding assay, ratio to K562; K562-BCMA is 4.47; the JNL binding assay, ratio to K562; NCI-H929 worked out at 3.31; the JNL binding assay, ratio to K562; RPMI 8226 came to 6.25. In addition, the Proliferation, CD3 ratio to no target; K562-BCMA stood at 7.37; the Proliferation, CD3 ratio to no target; KMS11-luc was determined as 8.63; the Proliferation, CD3 ratio to no target; NCI-H929 stood at 8.64; the Proliferation, CD3 ratio to no target; RPMI 8226 stood at 8.14. For the same molecule, the Proliferation, CD4 ratio to no target; K562-BCMA is 9.21; the Proliferation, CD4 ratio to no target; KMS11-luc turned out to be 8.6; the Proliferation, CD4 ratio to no target; NCI-H929 was 9.86; the Proliferation, CD4 ratio to no target; RPMI 8226 came to 10.1. Besides, the Proliferation, CD8 ratio to no target; K562-BCMA was 5.66; the Proliferation, CD8 ratio to no target; KMS11-luc turned out to be 8.74; the Proliferation, CD8 ratio to no target; NCI-H929 was found to be 7.42; the Proliferation, CD8 ratio to no target; RPMI 8226 worked out at 6.19.
